This passage reports background-corrected fluorescence results from the supplement of paper PMC9428881.

± gives the standard error.

The data set in a line: background-corrected fluorescence of 3'-dye-labeled ssDNA relative to brightest sequence (3'-GCGCG) (fraction); higher = brighter dye fluorescence (less quenching). Put shortly: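 Each of 1024 permuted pentamers was synthesized as single-stranded DNA on glass slides by light-directed phosphoramidite chemistry, with a 3' Cy3 or Cy5 dye alongside. Arrays were scanned at 532 or 635 nm before and after overnight deprotection with ethylenediamine/ethanol. Values average 10 features per array across at least 3 syntheses. The fluorescence readout, with unlabeled-oligo background removed, is given relative to the brightest sequence.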

As to “TTTTTTCATGATCAGCAGCATTTTTTTTTTTTTTTGCGTT”, the background-corrected fluorescence is, setting by setting: (dye: Cy3 (3' terminal)) 0.571 ± 0.032; (dye: Cy5 (3' terminal)) 0.422 ± 0.024.

With “TTTTTTGATGATGATGAGCATTTTTTTTTTTTTTTCCCCT”, the background-corrected fluorescence by setting is: (dye: Cy3 (3' terminal)) 0.438 ± 0.024; (dye: Cy5 (3' terminal)) 0.312 ± 0.016.

As for “TTTTTTGCTGATCATGATGATTTTTTTTTTTTTTTACGCC [CCGCA]”, the background-corrected fluorescence by setting is: (dye: Cy3 (3' terminal)) 0.467 ± 0.021; (dye: Cy5 (3' terminal)) 0.393 ± 0.027.

Turning to “TTTTTTGCTGATCATGCTCATTTTTTTTTTTTTTTACGAG [GAGCA]”, the background-corrected fluorescence by setting is: (dye: Cy3 (3' terminal)) 0.62 ± 0.017; (dye: Cy5 (3' terminal)) 0.507 ± 0.078.

Take “TTTTTGCATCATGCTGATGATTTTTTTTTTTTTTTTGACC [CCAGT]”: the background-corrected fluorescence came out at 0.418 ± 0.027 (dye: Cy3 (3' terminal)) and 0.3 ± 0.02 (dye: Cy5 (3' terminal)).

With “TTTTTTGATCATCATGCTCATTTTTTTTTTTTTTTCGGAG [GAGGC]”, the background-corrected fluorescence runs as follows: (dye: Cy3 (3' terminal)) 0.603 ± 0.02; (dye: Cy5 (3' terminal)) 0.487 ± 0.024.

For the sequence “TTTTTTGAGCATGATGATGATTTTTTTTTTTTTTTCTCCC [CCCTC]”, the background-corrected fluorescence amounted to 0.377 ± 0.029 (dye: Cy3 (3' terminal)) and 0.269 ± 0.018 (dye: Cy5 (3' terminal)).

With “TTTTTTGCTCATGCGCATGCTTTTTTTTTTTTTTTAGATA [ATAGA]”, the background-corrected fluorescence (dye: Cy3 (3' terminal)) stood at 0.582 ± 0.025 and the background-corrected fluorescence (dye: Cy5 (3' terminal)) amounted to 0.434 ± 0.019.

Take “TTTTTTCATGATGCGCATGATTTTTTTTTTTTTTTGCATC [CTACG]”: the background-corrected fluorescence runs as follows: (dye: Cy3 (3' terminal)) 0.441 ± 0.025; (dye: Cy5 (3' terminal)) 0.288 ± 0.026.

With “TTTTTTGAGCATGATGCTGCTTTTTTTTTTTTTTTCTCAA [AACTC]”, the background-corrected fluorescence was found to be 0.52 ± 0.042 (dye: Cy3 (3' terminal)) and 0.395 ± 0.02 (dye: Cy5 (3' terminal)).

As for “TTTTTGCAGCATCATGCGCATTTTTTTTTTTTTTTTTGAT [TAGTT]”, the background-corrected fluorescence by setting is: (dye: Cy3 (3' terminal)) 0.578 ± 0.013; (dye: Cy5 (3' terminal)) 0.453 ± 0.03.

As to “TTTTTTCATCAGCATGCTGATTTTTTTTTTTTTTTGGTAC [CATGG]”, the background-corrected fluorescence stood at 0.442 ± 0.016 (dye: Cy3 (3' terminal)) and 0.349 ± 0.036 (dye: Cy5 (3' terminal)).

“TTTTTGCAGCATGCGCATGATTTTTTTTTTTTTTTTTATC [CTATT]”: the background-corrected fluorescence reads like this: (dye: Cy3 (3' terminal)) 0.473 ± 0.024; (dye: Cy5 (3' terminal)) 0.312 ± 0.018.

“TTTTTGCAGCATCATCATCATTTTTTTTTTTTTTTTTGGG [GGGTT]” registered a background-corrected fluorescence (dye: Cy3 (3' terminal)) of 0.661 ± 0.029 and a background-corrected fluorescence (dye: Cy5 (3' terminal)) of 0.549 ± 0.029.

In the case of “TTTTTTGAGCATGATGCTCATTTTTTTTTTTTTTTCTCAG [GACTC]”, the background-corrected fluorescence was 0.517 ± 0.024 (dye: Cy3 (3' terminal)) and 0.389 ± 0.03 (dye: Cy5 (3' terminal)).

Take “TTTTTGCATCATCATGCTGCTTTTTTTTTTTTTTTTGGAA [AAGGT]”: the background-corrected fluorescence runs as follows: (dye: Cy3 (3' terminal)) 0.653 ± 0.024; (dye: Cy5 (3' terminal)) 0.557 ± 0.029.

As to “TTTTTTCATGCTGATCATCATTTTTTTTTTTTTTTGACGG [GGCAG]”, the background-corrected fluorescence came out at 0.65 ± 0.026 (dye: Cy3 (3' terminal)) and 0.585 ± 0.076 (dye: Cy5 (3' terminal)).

With “TTTTTTGATCATGCTCATGCTTTTTTTTTTTTTTTCGAGA [AGAGC]”, the background-corrected fluorescence by setting is: (dye: Cy3 (3' terminal)) 0.695 ± 0.032; (dye: Cy5 (3' terminal)) 0.53 ± 0.037.

Consider “TTTTTTGATGCGCATGATGCTTTTTTTTTTTTTTTCATCA [ACTAC]”, for which the background-corrected fluorescence worked out at 0.483 ± 0.034 (dye: Cy3 (3' terminal)) and 0.372 ± 0.026 (dye: Cy5 (3' terminal)).

For “TTTTTTGATGAGCATGATGATTTTTTTTTTTTTTTCCTCC”, the background-corrected fluorescence reads like this: (dye: Cy3 (3' terminal)) 0.342 ± 0.03; (dye: Cy5 (3' terminal)) 0.273 ± 0.021.

Regarding “TTTTTTGATGATCATCATCATTTTTTTTTTTTTTTCCGGG [GGGCC]”, the background-corrected fluorescence reads like this: (dye: Cy3 (3' terminal)) 0.731 ± 0.012; (dye: Cy5 (3' terminal)) 0.655 ± 0.076.

As for “TTTTTTGCTGAGCATGAGCATTTTTTTTTTTTTTTACTCT [TCTCA]”, the background-corrected fluorescence was found to be 0.421 ± 0.0073 (dye: Cy3 (3' terminal)) and 0.331 ± 0.022 (dye: Cy5 (3' terminal)).

As for “TTTTTGCATCATGCGCATGCTTTTTTTTTTTTTTTTGATA [ATAGT]”, the background-corrected fluorescence came out at 0.555 ± 0.039 (dye: Cy3 (3' terminal)) and 0.481 ± 0.032 (dye: Cy5 (3' terminal)).

On to “TTTTTTGCTGCTGAGCATGCTTTTTTTTTTTTTTTAACTA [ATCAA]”, for which the background-corrected fluorescence runs as follows: (dye: Cy3 (3' terminal)) 0.5388 ± 0.0047; (dye: Cy5 (3' terminal)) 0.406 ± 0.019.

As for “TTTTTTGATCATGCTCATGATTTTTTTTTTTTTTTCGAGC”, the background-corrected fluorescence stood at 0.547 ± 0.018 (dye: Cy3 (3' terminal)) and 0.425 ± 0.035 (dye: Cy5 (3' terminal)).

Sequence “TTTTTTGAGCATCATCATCATTTTTTTTTTTTTTTCTGGG [GGGTC]” showed a background-corrected fluorescence (dye: Cy3 (3' terminal)) of 0.668 ± 0.018 and a background-corrected fluorescence (dye: Cy5 (3' terminal)) of 0.563 ± 0.043.

Regarding “TTTTTGCATGAGCAGCATGCTTTTTTTTTTTTTTTTCTTA [ATTCT]”, the background-corrected fluorescence runs as follows: (dye: Cy3 (3' terminal)) 0.5004 ± 0.0042; (dye: Cy5 (3' terminal)) 0.373 ± 0.022.

For the sequence “TTTTTTGCTCATGCTCATGATTTTTTTTTTTTTTTAGAGC [CGAGA]”, the background-corrected fluorescence by setting is: (dye: Cy3 (3' terminal)) 0.565 ± 0.022; (dye: Cy5 (3' terminal)) 0.435 ± 0.046.

With “TTTTTTGAGCATCATGCTCATTTTTTTTTTTTTTTCTGAG [GAGTC]”, the background-corrected fluorescence runs as follows: (dye: Cy3 (3' terminal)) 0.621 ± 0.024; (dye: Cy5 (3' terminal)) 0.479 ± 0.041.
